Values of other authors in US11229683B2, “Hematopoietic growth factor proteins and analogs thereof and angiotensin converting enzyme inhibitors for treatment of radiation exposure” (priority 2015, dated 2022).
Read-outs that look alike come from different tables or passages of the source.

Assays:
[1] = system: chemotherapy (cyclophosphamide)-treated rats; conditions: single injection; cited from earlier work
irradiated monkeys = conditions: cited from earlier work; for survival versus vehicle: daily sc treatment started 48 h post-TBI

B1: G-CSF: human G-CSF (filgrastim (Neupogen, Amgen, Inc.) (protein, listed as Homo sapiens)
chain: TPLGPASSLPQSFLLKCLEQVRKIQGDGAALQEKLCATYKLCHPEELVLLGHSLGIPWAPLSSCPSQALQLAGCLSQLHSGLFLYQGLLQALEGISPELGPTLDTLQLDVADFATTIWQQMEELGMAPALQPTQGAMPAFASAFQRRAGGVLVASHLQSFLEVSYRVLRHLAQP
For B1, the recovery from neutropenia [1] is listed as “ineffective”, the “60-day survival of rhesus monkeys” value (irradiated monkeys; daily sc 0.01 mg/kg/day for 16-23 days, started 24 h post-TBI) is listed as “increased 60-day survival” and the “survival of irradiated monkeys” value (irradiated monkeys; daily sc beginning 24 h post-TBI for about 16 days, placebo 50%) is listed as 80%. For the same molecule, the survival versus vehicle (irradiated monkeys) was “did not increase survival” and the survival versus vehicle (irradiated monkeys; listed as filgrastim) was “but not when administered at 48 h post-TBI”.
